# B1: CPEB3 Ribozyme (parent)
# chain: UAACAGGGGGCCACAGCAGAAGCGUUCACGUCGCAGCCCCUGUCAGAUUCUGGUGAAUCUGCGAAUUCUGCUGUAUAUCUC
# Variants of: B1
# Assay: self-cleavage, relative activity (ratio to wild type); higher = more cleavage; in vitro, sequencing
# Procedure, shortened: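 Barcoded CPEB3 ribozyme mutants, produced by rounds of error-prone PCR, self-cleaved while being transcribed with T7 RNA polymerase for 5 hours at 37°C and during a subsequent 15 min DNase I step before EDTA was added. Sequencing of template-switched cDNA on Illumina gave cleaved and total reads, and DNA sequencing assigned barcodes to variants. Each variant's relative activity is its cleaved/total read fraction divided by the unmutated ribozyme's fraction, averaged across three batches. A variant needed a minimum of 5 reads.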
row,Variant,self-cleavage
1,UAACAGGGGCCCACAGCAGAAGCUUUCACGUCGCAGCCCCUGUCAGAUUCUGGUGAAUCUGCGAAUUCUGCUGUAUAUCUC [G10C G24U],0.15
2,UAACAGGGGCCCACAGCAGAAGCGUUCACGUCGCAGCCCCUGUCAGAUUCUGGUGAGUCUGCGAAUUCUGCUGUAUAUCUC [G10C A57G],0.21
3,UAACAGGGGCCCACAGCAGAAGCGUUCACGUCACAGCCCCUGUCAGAUUCUGGUGAAUCUGCGAAUUCUGCUGUAUAUCUC [G10C G33A],0.16
4,UAACAGGGGCCCACAGCAGAAGCGCUCACGUCGCAGCCCCUGUCAGAUUCUGGUGAAUCUGCGAAUUCUGCUGUAUAUCUC [G10C U25C],0.07
5,UAACAGGGGCCCAUAGCAGAAGCGUUCACGUCGCAGCCCCUGUCAGAUUCUGGUGAAUCUGCGAAUUCUGCUGUAUAUCUC [G10C C14U],0.5
6,UAACAGGGGCCCACAACAGAAGCGUUCACGUCGCAGCCCCUGUCAGAUUCUGGUGAAUCUGCGAAUUCUGCUGUAUAUCUC [G10C G16A],0.12
7,UAACAGGGGCCCACAGCAGAAGCGUGCACGUCGCAGCCCCUGUCAGAUUCUGGUGAAUCUGCGAAUUCUGCUGUAUAUCUC [G10C U26G],0.39
8,UAACAGGGGCCCACAGCAGAAGCGUCCACGUCGCAGCCCCUGUCAGAUUCUGGUGAAUCUGCGAAUUCUGCUGUAUAUCUC [G10C U26C],0.21
9,UAACAGGGGCCCACAGCAGAAGCGUUCACGUCGCAGCCCCUGUCAGAUUCUGGUGGAUCUGCGAAUUCUGCUGUAUAUCUC [G10C A56G],0.15
10,UAACAGGGGACCACAGCAGAAGCGUUCACGUCGCAGCCCCUGUCAGAUUCUGGUGAAUCUGCGAAUUCUGCUGUAUAGCUC [G10A U78G],0.33
11,UAACAGGGGACCACAGCAGAAGCGUUCACGUCGCAGCCCCUGUCAGAUUCUGGUGAAUCUGCGAAUUCUGCUGUAUACCUC [G10A U78C],0.24
12,UAACAGGGGACCACAGCAGAAGCGUUCACGUCGCAGCCCCUGUCAGAUUCUGGUGAAUCUGCGAAUUCUGCGGUAUAUCUC [G10A U72G],0.24
13,UAACAGGGGACCACAGCAGAAGCGUUCACGUCGCAGCCCCUGUCAGAUUCUGGUGAAUCUGCGAAUUCUGCCGUAUAUCUC [G10A U72C],0.39
14,UAACAGGGGACCACAGCAGAAGCGUUCACGUCGCAGCCCCUGUCAGAUUCUGGUGAAUCUGCGAAUUCUGCAGUAUAUCUC [G10A U72A],0.22
15,UAACAGGGGCCCACAGCAGAAGCGUUCACGUCGCAGCCCCUUUCAGAUUCUGGUGAAUCUGCGAAUUCUGCUGUAUAUCUC [G10C G42U],0.16
16,UAACAGGGGCCCACAGCAGAAGCGUUCACGUCGCAGCCCCUGUCAGAUUCUGGUGAAUCUGCGAAUUCUGAUGUAUAUCUC [G10C C71A],0.12
17,UAACAGGGGCCCACAGCAGUAGCGUUCACGUCGCAGCCCCUGUCAGAUUCUGGUGAAUCUGCGAAUUCUGCUGUAUAUCUC [G10C A20U],0.42
18,UAACAGGGGCCCACAGCAGGAGCGUUCACGUCGCAGCCCCUGUCAGAUUCUGGUGAAUCUGCGAAUUCUGCUGUAUAUCUC [G10C A20G],0.19
19,UAACAGGGGACCACAGCAGAAGCGUUCACGUCGCAGCCCCUGUCAGAUUCUGGUGAAUCUGCGAAUCCUGCUGUAUAUCUC [G10A U67C],0.25
20,UAACAGGGGCCCACAGCAGAAGCGUUCACGUCGCAGCCCCUGACAGAUUCUGGUGAAUCUGCGAAUUCUGCUGUAUAUCUC [G10C U43A],0.38
21,UAACAGGGGCCCACAGCAGAAGCGUUCACGUCGCAGCCCCUGCCAGAUUCUGGUGAAUCUGCGAAUUCUGCUGUAUAUCUC [G10C U43C],0.13
22,UAACAGGGGCCCACAGCAGAAGCGUUCCCGUCGCAGCCCCUGUCAGAUUCUGGUGAAUCUGCGAAUUCUGCUGUAUAUCUC [G10C A28C],0.16
23,UAACAGGGGCCCACAGCAGAAGCGUUCGCGUCGCAGCCCCUGUCAGAUUCUGGUGAAUCUGCGAAUUCUGCUGUAUAUCUC [G10C A28G],0.14

row,Variant,self-cleavage
1,UAACAGGGGCCCACAGCAGAGGCGUUCACGUCGCAGCCCCUGUCAGAUUCUGGUGAAUCUGCGAAUUCUGCUGUAUAUCUC [G10C A21G],0.18
2,UAACAGGGGCCCACAGCAGAAGCGUUCACGUCGCAGCCCCUGUCAGAUUCUGGUGAAUCUGCGAAUUCUGCUAUAUAUCUC [G10C G73A],0.35
3,UAACAGGGGCCCACUGCAGAAGCGUUCACGUCGCAGCCCCUGUCAGAUUCUGGUGAAUCUGCGAAUUCUGCUGUAUAUCUC [G10C A15U],0.08
4,UAACAGGGGCCCACGGCAGAAGCGUUCACGUCGCAGCCCCUGUCAGAUUCUGGUGAAUCUGCGAAUUCUGCUGUAUAUCUC [G10C A15G],0.08
5,UAACAGGGGACCACAGCAGAAGCGUUCACGUCGCAGCCCCUGUCAGAUUCUGGUGAAUCCGCGAAUUCUGCUGUAUAUCUC [G10A U60C],0.2
6,UAACAGGGGACCACAGCAGAAGCGUUCACGUCGCAGCCCCUGUCAGAUUCUGGUGAAUCGGCGAAUUCUGCUGUAUAUCUC [G10A U60G],0.06
7,UAACAGGGGCCCACAGCAGAAGCGUUCACGUCGCAGCCCCUGUCUGAUUCUGGUGAAUCUGCGAAUUCUGCUGUAUAUCUC [G10C A45U],0.16
8,UAACAGGGGCCCACAGCAGAAGCGUUCACGUCGCAGCCCCUGUCGGAUUCUGGUGAAUCUGCGAAUUCUGCUGUAUAUCUC [G10C A45G],0.13
9,UAACAGGGGACCACAGCAGAAGCGUUCACGUCGCAGCCCCUGUCAGAUUCUGGUGAAUCUGCGAAUUCUGCUGCAUAUCUC [G10A U74C],0.25
10,UAACAGGGGACCACAGCAGAAGCGUUCACGUCGCAGCCCCUGUCAGAUUCUGGUGAAUCUGCGAAUUCUGCUGAAUAUCUC [G10A U74A],0.25
11,UAACAGGGGACCACAGCAGAAGCGUUCACGUCGCAGCCCCUGUCAGAUUCUGGUGAAUCUGCGAAUUCUGCUGGAUAUCUC [G10A U74G],0.14
12,UAACAGGGGACCACAGCAGAAGCGUUCACGUCGCAGCCCCUGUCAGAUUCUGGUGAAUCUGCGAAUUCCGCUGUAUAUCUC [G10A U69C],0.2
13,UAACAGGGGACCACAGCAGAAGCGUUCACGUCGCAGCCCCUGUCAGAUUCUGGUGAAUCUGCGAAUUCAGCUGUAUAUCUC [G10A U69A],0.11
14,UAACAGGGGACCACAGCAGAAGCGUUCACGUCGCAGCCCCUGUCAGAUUCUGGUGAAUCUGCGAAUUCGGCUGUAUAUCUC [G10A U69G],0.36
15,UAACAGGGGCACACAGCAGAAGCGUUCACGUCGCAGCCCCUGUCAGAUUCUGGUGAAUCUGCGAAUUCUGCUGUAUAUCUC [G10C C11A],0.33
16,UAACAGGGGCCCACAGCAGAAGCGUUCACGUCGCAGCCCCUGUCAGAUUCUAGUGAAUCUGCGAAUUCUGCUGUAUAUCUC [G10C G52A],0.2
17,UAACAGGGGCCUACAGCAGAAGCGUUCACGUCGCAGCCCCUGUCAGAUUCUGGUGAAUCUGCGAAUUCUGCUGUAUAUCUC [G10C C12U],0.1
18,UAACAGGGGCCAACAGCAGAAGCGUUCACGUCGCAGCCCCUGUCAGAUUCUGGUGAAUCUGCGAAUUCUGCUGUAUAUCUC [G10C C12A],0.44
19,UAACAGGGGCCCACAGCAGAAGCGUUCACGUCGCAGCCCCUGUCAGAUUCUGGCGAAUCUGCGAAUUCUGCUGUAUAUCUC [G10C U54C],0.39
20,UAACAGGGGCCCACAGCAGAAGCGUUCACGUCGCAGCCCCUGUCAGAUUCUGGAGAAUCUGCGAAUUCUGCUGUAUAUCUC [G10C U54A],0.26
21,UAACAGGGGCCCACAGCAGAAGCGUUCACGUCGCAGCCCCUGUCAGAUACUGGUGAAUCUGCGAAUUCUGCUGUAUAUCUC [G10C U49A],0.2
22,UAACAGGGGCCCACAGCAGAAGCGUUCACGUCGCAGCCCCUGUCAGAUCCUGGUGAAUCUGCGAAUUCUGCUGUAUAUCUC [G10C U49C],0.22
23,UAACAGGGGCCCACAGCAGAAGCGUUCACGUCGCAGCCCCUGUCAGAUGCUGGUGAAUCUGCGAAUUCUGCUGUAUAUCUC [G10C U49G],0.17

row,Variant,self-cleavage
1,UAACAGGGGCCCACAGCAGAAGCGUUCACGUCGCGGCCCCUGUCAGAUUCUGGUGAAUCUGCGAAUUCUGCUGUAUAUCUC [G10C A35G],0.28
2,UAACAGGGGACCACAGCAGAAGCGUUCACGUCGCAGCCCCUGUCAGAUUCUGGUGAAUCUGCGAACUCUGCUGUAUAUCUC [G10A U66C],0.2
3,UAACAGGGGCCCACAGCAGAAGCGUUUACGUCGCAGCCCCUGUCAGAUUCUGGUGAAUCUGCGAAUUCUGCUGUAUAUCUC [G10C C27U],0.15
4,UAACAGGGGACCACAGCAGAAGCGUUCACGUCGCAGCCCCUGUCAGAUUCUGGUGAAUCUGCGAAUUCUGCUGUACAUCUC [G10A U76C],0.33
5,UAACAGGGGACCACAGCAGAAGCGUUCACGUCGCAGCCCCUGUCAGAUUCUGGUGAAUCUGCGAAUUCUGCUGUAAAUCUC [G10A U76A],0.23
6,UAACAGGGGCCCACAGCAGAAGCGUUCACGUCGCAGCCCCUGUCAGAUUCUGGUGAAUCUGCGUAUUCUGCUGUAUAUCUC [G10C A64U],0.15
7,UAACAGGGGCCCACAGCAGAAGCGUUCACGUCGCAGCCCCUGUCAGAUUCUGGUGAAUCUGCGGAUUCUGCUGUAUAUCUC [G10C A64G],0.25
8,UAACAGGGGCCCACAGCAGAAGCGUUCACGUCGCAGCCCCCGUCAGAUUCUGGUGAAUCUGCGAAUUCUGCUGUAUAUCUC [G10C U41C],0.1
9,UAACAGGGGCCCACAGCAGAAGCGUUCACGUCGCAGCCCCAGUCAGAUUCUGGUGAAUCUGCGAAUUCUGCUGUAUAUCUC [G10C U41A],0.33
10,UAACAGGGGCCCACAGCAGAAGCGUUCACGUCGCAGCCCCUGUCAGAUUCUGAUGAAUCUGCGAAUUCUGCUGUAUAUCUC [G10C G53A],0.26
11,UAACAGGGGCCCACAGCAGAAGCGUUCACGUCGCAGCCCCUGUCAGAUUCUGGUGAAUCUGCGAAUUCUGCUGUAUAUCUC [G10C],0.25
12,UAACAGGGGCCCACAGCAGAAGCGUUCACGUCGCAGCCCCUGUCAGUUUCUGGUGAAUCUGCGAAUUCUGCUGUAUAUCUC [G10C A47U],0.15
13,UAACAGGGGCCCACAGCAGAAGCGUUCACGUCGCAGCCCCUGUUAGAUUCUGGUGAAUCUGCGAAUUCUGCUGUAUAUCUC [G10C C44U],0.18
14,UAACAGGGGCCCACAGCAGAAGCGUUCACGUCGCAGCCCCUGUCAGAUUCUGGUGAAUCUGCGAGUUCUGCUGUAUAUCUC [G10C A65G],0.33
15,UAACAGGGGCCCACAGCAGAAGCGUUCACGUCGCAGCCCCUGUCAGACUCUGGUGAAUCUGCGAAUUCUGCUGUAUAUCUC [G10C U48C],0.22
16,UAACAGGGGCCCACAGCAGAAGCGUUCACGUCGCAGCCCCUGUCAGAUUCUGGUGAAUCUGCGAAUUCUGCUGUGUAUCUC [G10C A75G],0.24
17,UAACAGGGGACCACAGCAGAAGCGUUCACGUCGCAGCCCCUGUCAGAUUCUGGUGAAUCUGCGAAUUCUGCUGUAUAUCAC [G10A U80A],0.06
18,UAACAGGGGACCACAGCAGAAGCGUUCACGUCGCAGCCCCUGUCAGAUUCUGGUGAAUCUGCGAAUUCUGCUGUAUAUCGC [G10A U80G],0.25
19,UAACAGGGGACCACAGCAGAAGCGUUCACGUCGCAGCCCCUGUCAGAUUCUGGUGAAUCUGCGAAUUCUGCUGUAUAUCCC [G10A U80C],0.25
20,UAACAGGGGCCCACAGCAGAAGCGUUCACGUCGCAGCCCCUGUCAGAUUCCGGUGAAUCUGCGAAUUCUGCUGUAUAUCUC [G10C U51C],0.22
21,UAACAGGGGCCCACAGCUGAAGCGUUCACGUCGCAGCCCCUGUCAGAUUCUGGUGAAUCUGCGAAUUCUGCUGUAUAUCUC [G10C A18U],0.12
22,UAACAGGGGCCCACAGCGGAAGCGUUCACGUCGCAGCCCCUGUCAGAUUCUGGUGAAUCUGCGAAUUCUGCUGUAUAUCUC [G10C A18G],0.13
